Measurements published in patent EP1340979A2, “Neuropeptide receptor and uses thereof” (Pfizer Limited, priority 2002, dated 2003).
Where a SMILES comes first, the peptide text is derived from it. Bridges are numbered along the chain shown (N, C = ends). [ ]: non-standard residue; d: D form. The star is where a group is joined. d2Nal = N[C@H](Cc1ccc2ccccc2c1)C(=O)O; Nle = CCCC[C@H](N)C(=O)O; Ahp = NCCCCCCC(=O)O; Bn = c1ccc(C*)cc1

Target: receptor MRGX2 (human) (UniProt Q96LB1)
Experiment: cell-based or functional assay
Settings: not given

| Molecule | EC50 (µM), intracellular calcium mobilisation (FLIPR) [µM] |
| --- | --- |
| Hexarelin (peptide) | 9.5 |
| Nociceptin (from UniProt Q13519 130-146) (peptide) | > 10 |
| NPVF (from UniProt Q9HCQ7 124-131) (peptide) | > 10 |
| (Deamino-Cysl,D-Orn^8) Vasopressin (from UniProt P01185 20-28) (peptide) | > 10 |
| BAM 13-22 (from UniProt P01211 37-46) (peptide) | 0.1 |

Now from value to molecule:

| EC50 (µM), intracellular calcium mobilisation (FLIPR) [µM] | Molecule |
| --- | --- |
| 1.85 | Dynorphin A (from UniProt P01213 207-219) (peptide) |
| 7.4 | (Ser^4, Ile^8)-Oxytocin (from UniProt P01178 20-28) (peptide) |
| 0.179 | D-Trp-Somatostatin (from UniProt P61278 103-116) (peptide) |
| 1.47 | Cyclosomatostatin (peptide) |
| > 10 | Apelin 13 (from UniProt Q9ULZ1 65-77) (peptide) |
| > 10 | NPAF (from UniProt O15130 93-110) (peptide) |
| 1.47 | Oxytocin (from UniProt P01178 20-28) (peptide) |
| 0.251 | N9642 (β-(2-Naphthyl)-D-Ala-Cys-Tyr-D-Trp-Lys-Val-Cys-Thr amide [Disulfide Bridge: 2-7] (sst2R agonist)) (peptide) |
| > 10 | HS014 (peptide) |
| 0.78 | Somatostatin 14 (from UniProt P61278 89-116) (peptide) |
| 0.42 | HS024 (Acetyl-Cys^3,Nle^4,Arg^5,D-2-Nal^7,Cys^11)-α-MSH (3-11) amide (from UniProt P01189 140-148) (peptide) |
| > 10 | NPSF (peptide) |
| > 10 | Octreotide (peptide) |

System: SNSR3
Experiment: not given
Settings: SNSR3 (MRGX1); cited from earlier work

| Molecule | EC50 [nM] |
| --- | --- |
| Bovine adrenal medulla peptide 22 [BAM 22] | 13 |

Target: MC4 receptor (Homo sapiens, UniProt P32245)
Experiment: not given
Settings: cited from earlier work

MC4 receptor, sequence (P32245 whole entry): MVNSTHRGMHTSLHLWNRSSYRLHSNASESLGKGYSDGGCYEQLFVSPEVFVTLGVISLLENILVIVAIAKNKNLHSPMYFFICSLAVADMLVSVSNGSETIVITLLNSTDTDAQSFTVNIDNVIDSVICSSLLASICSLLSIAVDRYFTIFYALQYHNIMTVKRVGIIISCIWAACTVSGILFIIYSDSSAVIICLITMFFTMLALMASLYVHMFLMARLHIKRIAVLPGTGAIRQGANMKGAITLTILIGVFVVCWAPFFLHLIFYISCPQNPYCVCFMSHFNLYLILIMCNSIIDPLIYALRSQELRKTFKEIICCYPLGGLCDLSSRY

| Molecule | Ki [nM] |
| --- | --- |
| CCCC[C@@H]1NC(=O)[C@@H](NC(C)=O)CSSC[C@@H](C(N)=O)NC(=O)CNC(=O)[C@H](Cc2c[nH]c3ccccc23)NC(=O)[C@H](CCCNC(=N)N)NC(=O)[C@@H](Cc2ccc3ccccc3c2)NC(=O)[C@H](Cc2c[nH]cn2)NC(=O)[C@H](CCCNC(=N)N)NC1=O [HS024, (Acetyl-Cys^3,Nle^4,Arg^5,D-2-Nal^7,Cys^11)-a-MSH (3-11) amide] (Ac-C[Nle]RH[d2Nal]RWGC-NH2; disulfide 1-9 (inferred)) | 0.29 |

Target: T1, receptor MRGX2 (Homo sapiens, UniProt Q96LB1)
T1 sequence (Q96LB1 1-330): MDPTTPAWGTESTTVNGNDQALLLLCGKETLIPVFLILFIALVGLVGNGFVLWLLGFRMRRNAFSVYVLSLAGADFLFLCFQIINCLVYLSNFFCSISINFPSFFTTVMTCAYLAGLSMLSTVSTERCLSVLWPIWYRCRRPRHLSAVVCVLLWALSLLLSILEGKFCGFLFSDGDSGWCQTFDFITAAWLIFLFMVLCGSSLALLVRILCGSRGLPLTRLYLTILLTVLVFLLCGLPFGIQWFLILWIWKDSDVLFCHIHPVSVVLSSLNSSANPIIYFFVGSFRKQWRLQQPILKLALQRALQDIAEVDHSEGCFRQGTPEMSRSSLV
Experiment: Functional assay measuring intracellular calcium mobilisation (FLIPR)
Type: cell-based
Parameters: expressed in transfected cells; host or cells: e.g. HEK293 or CHO-K1 engineered to stably express Galpha15 / Gqi-5
Settings: not given

| Molecule | EC50 [nM] |
| --- | --- |
| CSCC[C@H](NC(=O)[C@@H]1CCCN1C(=O)CNC(=O)[C@H](CCCCN)NC(=O)[C@H](Cc1cnc[nH]1)NC(=O)[C@H](CO)NC(=O)[C@H](CC(C)C)NC(=O)[C@H](CCCNC(=N)N)NC(=O)[C@@H]1CCCN1C(=O)[C@H](CCCNC(=N)N)NC(=O)[C@@H](N)CCC(N)=O)C(=O)N1CCC[C@H]1C(=O)N[C@@H](Cc1ccccc1)C(=O)O [Apelin 13] | > 10000 |

Same assay, conditions: Preliminary EC50 data for receptor MRGX2; transiently transfected host cells expressing Gα15 / Gqi-5, Fluo3 fluorescence; read-out: EC50

| Molecule | EC50 [nM] |
| --- | --- |
| CC(C)[C@@H]1NC(=O)[C@H](CCCCN)NC(=O)[C@@H](Cc2c[nH]c3ccccc23)NC(=O)[C@H](Cc2ccc(O)cc2)NC(=O)[C@@H](NC(=O)[C@H](N)Cc2ccc3ccccc3c2)CSSC[C@@H](C(=O)N[C@H](C(N)=O)[C@@H](C)O)NC1=O [Peptide N9642, β-(2-Naphthyl)-D-Ala-Cys-Tyr-D-Trp-Lys-Val-Cys-Thr amide [Disulfide Bridge: 2-7]] | 251 |
| CC[C@H](C)[C@@H]1NC(=O)[C@H](Cc2ccc(O)cc2)NC(=O)[C@@H](N)CSSC[C@@H](C(=O)N2CCC[C@H]2C(=O)N[C@H](C(=O)NCC(N)=O)[C@@H](C)CC)NC(=O)[C@H](CC(N)=O)NC(=O)[C@H](CO)NC1=O [(Ser^4, Ile^8)-Oxytocin] (H-CYISNCPIG-NH2; disulfide 1-6) | 7400 |
| CC(C)C[C@H](NC(=O)[C@H](CC(N)=O)NC(=O)[C@@H]1CCCN1C(=O)[C@@H](N)C(C)C)C(=O)N1CCC[C@H]1C(=O)N[C@@H](CCC(N)=O)C(=O)N[C@@H](CCCNC(=N)N)C(=O)N[C@@H](Cc1ccccc1)C(N)=O [NPVF] | > 10000 |
| C[C@H](N)C(=O)NCC(=O)N[C@H]1CSSC[C@@H](C(=O)O)NC(=O)[C@H](CO)NC(=O)[C@H]([C@@H](C)O)NC(=O)[C@H](Cc2ccccc2)NC(=O)[C@H]([C@@H](C)O)NC(=O)[C@H](CCCCN)NC(=O)[C@@H](Cc2c[nH]c3ccccc23)NC(=O)[C@H](Cc2ccccc2)NC(=O)[C@H](Cc2ccccc2)NC(=O)[C@H](CC(N)=O)NC(=O)[C@H](CCCCN)NC1=O [D-Trp-Somatostatin] | 179 |

Results, then the molecule that gave them:

| EC50 [nM] | Molecule |
| --- | --- |
| 1470 | C[C@@H](OCc1ccccc1)[C@@H]1NC(=O)[C@H](CCCCN)NC(=O)[C@@H](Cc2c[nH]c3ccccc23)NC(=O)[C@H](Cc2ccccc2)NC(=O)CCCCCCNC1=O [Cyclosomatostatin] (cyclo([Ahp]F[dW]KT(Bn)); ring closure inferred) |
| 1470 | CC[C@H](C)[C@@H]1NC(=O)[C@H](Cc2ccc(O)cc2)NC(=O)[C@@H](N)CSSC[C@@H](C(=O)N2CCC[C@H]2C(=O)N[C@@H](CC(C)C)C(=O)NCC(N)=O)NC(=O)[C@H](CC(N)=O)NC(=O)[C@H](CCC(N)=O)NC1=O [Oxytocin] |

Same assay, conditions: at a concentration of 1µM

| response of the MRGX2 receptor | Molecule |
| --- | --- |
| responds | γ-MSH |
| responds | α-MSH |

Target: five known SST receptors
Experiment: not given
Settings: range over the five known SST receptors; cited from earlier work

| Molecule | EC50 [nM] |
| --- | --- |
| Cortistatin (PCKNFFWKTFSSCK) [CST, cyclic peptide derived from a prepropeptide of 114 residues in man] | 0.25 to 0.9 |

Target: T1, receptor MRGX2
Experiment: Functional assay measuring intracellular calcium mobilisation (FLIPR)
Type: cell-based
Parameters: expressed in transfected cells; host or cells: host cell line, e.g. HEK293 or CHO-K1, engineered to stably express Gα15 / Gqi-5
Settings: Preliminary EC50 data for receptor MRGX2; transiently transfected host cells expressing Gα15 / Gqi-5, Fluo3 fluorescence
Experimental: 5 x 10^6 cells of a suitable host cell line, chosen to express a low number of endogenous receptors (e.g. HEK293 or CHO-K1) and engineered to stably express Gα15 / Gqi-5, were transiently transfected with 7.5 µg of cDNA encoding receptor MRGX2 in a suitable mammalian cell expression vector, or vector alone, using Lipofectamine Plus® reagent (Gibco BRL) as per the manufacturer's protocol. If the cells were intended for a ligand binding assay or microphysiometry, they were incubated for 24-72 hours post transfection, and then harvested. […]
Fluorescence Imaging Plate Reader (FLIPR®) technology was employed as a means to detect activation of receptor MRGX2 by various potential GPCR agonists.
Cells were transfected as described in Example 3. […] The FLIPR® processing involved reading the fluorescence for all samples for 2 minutes; during this time the fluorescence baseline was determined for 10 seconds. The desired amount of compounds (i.e. potential GPCR agonists) was then automatically transferred to the wells and the fluorescence was continuously monitored for the remainder of the time. […]
Compounds capable of acting as agonists for the receptor were identified by them causing a transient rise in fluorescence, and therefore in intracellular calcium, in the cells.

| Molecule | EC50 |
| --- | --- |
| Nc1ncnc2nc[nH]c12 [Adenine] | No response |

System: not given
Experiment: not given
Settings: i.c.v. administration, free feeding rats, maximal response at 1nmol dose; cited from earlier work

| Molecule | food intake |
| --- | --- |
| CCCC[C@@H]1NC(=O)[C@@H](NC(C)=O)CSSC[C@@H](C(N)=O)NC(=O)CNC(=O)[C@H](Cc2c[nH]c3ccccc23)NC(=O)[C@H](CCCNC(=N)N)NC(=O)[C@@H](Cc2ccc3ccccc3c2)NC(=O)[C@H](Cc2c[nH]cn2)NC(=O)[C@H](CCCNC(=N)N)NC1=O [HS024, (Acetyl-Cys^3,Nle^4,Arg^5,D-2-Nal^7,Cys^11)-a-MSH (3-11) amide] (Ac-C[Nle]RH[d2Nal]RWGC-NH2; disulfide 1-9 (inferred)) | dose dependant increase in food intake |
